Here are results for 18 molecules from patent publication US20230285582A1 (published 2023).

Sequences and labels used below:
T1: cynomolgus monkey (Macaca fascicularis) TfR1 (cynomolgus monkey (Macaca fascicularis), UniProt Q5RDH6 89-760 (Pongo abelii entry), limits assumed)
T1 construct: also called cTfR1; cyTfR1
T1 chain: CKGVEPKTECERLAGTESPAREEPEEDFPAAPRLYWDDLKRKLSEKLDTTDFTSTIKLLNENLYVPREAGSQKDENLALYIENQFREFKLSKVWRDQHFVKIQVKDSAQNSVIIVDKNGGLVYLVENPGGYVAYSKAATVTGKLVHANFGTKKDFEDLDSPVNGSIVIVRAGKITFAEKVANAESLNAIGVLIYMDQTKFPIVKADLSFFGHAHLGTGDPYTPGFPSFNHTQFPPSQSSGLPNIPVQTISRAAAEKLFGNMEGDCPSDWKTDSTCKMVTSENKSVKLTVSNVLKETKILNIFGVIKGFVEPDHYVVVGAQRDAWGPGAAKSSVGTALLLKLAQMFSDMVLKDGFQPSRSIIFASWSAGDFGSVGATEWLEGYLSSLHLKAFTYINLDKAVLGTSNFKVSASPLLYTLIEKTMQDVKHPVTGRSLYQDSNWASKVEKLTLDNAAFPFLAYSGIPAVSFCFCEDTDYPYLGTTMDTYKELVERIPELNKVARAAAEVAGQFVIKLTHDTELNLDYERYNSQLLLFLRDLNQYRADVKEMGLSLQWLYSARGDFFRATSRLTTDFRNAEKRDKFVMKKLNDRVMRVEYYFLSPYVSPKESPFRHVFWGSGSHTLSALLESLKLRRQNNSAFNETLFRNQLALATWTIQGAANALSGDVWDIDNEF

B1: humanized anti-TfR Fab 3A4 VH3 (N54T)/Vk4 (Fab, V domains shown)
VH: EVQLVQSGSELKKPGASVKVSCTASGFNIKDDYMYWVRQPPGKGLEWIGWIDPETGDTEYASKFQDRVTVTADTSTNTAYMELSSLRSEDTAVYYCTLWLRRGLDYWGQGTLVTVSS
VL: DIVMTQSPLSLPVTPGEPASISCRSSKSLLHSNGYTYLFWFQQRPGQSPRLLIYRMSNLASGVPDRFSGSGSGTDFTLKISRVEAEDVGVYYCMQHLEYPFTFGGGTKVEIKR
B2: humanized anti-TfR Fab 3A4 VH3/Vk4 (Fab, V domains shown)
VH: B1 VH with T55N
VL: B1 VL
B3: humanized anti-TfR Fab 3A4 VH3 (N54S)/Vk4 (Fab, V domains shown)
VH: B1 VH with T55S
VL: B1 VL
B4: humanized anti-TfR Fab 3M12 VH3/Vk2 (Fab, V domains shown)
VH: QVQLQESGPGLVKPSQTLSLTCSVTGYSITSGYYWNWIRQPPGKGLEWMGYITFDGANNYNPSLKNRVSISRDTSKNQFSLKLSSVTAEDTATYYCTRSSYDYDVLDYWGQGTTVTVSS
VL: DIQMTQSPSSLSASVGDRVTITCRASQDISNFLNWYQQKPGQPVKLLIYYTSRLHSGVPSRFSGSGSGTDFTLTISSLQPEDFATYFCQQGHTLPYTFGQGTKLEIKR
B5: humanized anti-TfR Fab 3M12 VH3/Vk3 (Fab, V domains shown)
VH: B4 VH
VL: B4 VL with F87Y
B6: humanized anti-TfR Fab 3M12 VH4/Vk2 (Fab, V domains shown)
VH: B4 VH with S23T, M49I
VL: B4 VL
B7: humanized anti-TfR Fab 5H12 VH5 (C33Y)/Vk4 (Fab, V domains shown)
VH: QVQLVQSGAEVKKPGASVKVSCKASGYSFTDYYINWVRQAPGQGLEWMGWIYPGSGNTRYSERFKGRVTITRDTSASTAYMELSSLRSEDTAVYYCAREDYYPYHGMDYWGQGTLVTVSS
VL: DIVMTQSPDSLAVSLGERATINCRASESVDGYDNSFMHWYQQKPGQPPKLLIFRASNLESGVPDRFSGSGSGTDFTLTISSLQAEDVAVYYCQQSSEDPWTFGQGTKLEIKR
B8: humanized anti-TfR Fab 5H12 VH5 (C33Y)/Vk3 (Fab, V domains shown)
VH: B7 VH
VL: B7 VL with M4L, G72R
B9: humanized anti-TfR Fab 5H12 VH5 (C33D)/Vk4 (Fab, V domains shown)
VH: B7 VH with Y33D
VL: B7 VL
B10: conjugate of humanized anti-TfR Fab 3A4 VH3 (N54T)/Vk4 with DMPK-targeting oligonucleotide ASO300 (Fab, V domains shown)
VH: B1 VH
VL: B1 VL
modifications: ASO300 oligonucleotide attached through a cleavable Val-Cit linker (Formula (C)); residue and chain not stated
notes: also called 3A4 (VH3-N54T/Vk4) conjugate; DMPK oligo conjugate
B11: conjugate of humanized anti-TfR Fab 3A4 VH3 (N54S)/Vk4 with DMPK-targeting oligonucleotide ASO300 (Fab, V domains shown)
VH: B1 VH with T55S
VL: B1 VL
modifications: ASO300 oligonucleotide attached through a cleavable Val-Cit linker (Formula (C)); residue and chain not stated
notes: also called 3A4 (VH3-N54S/Vk4) conjugate; DMPK oligo conjugate
B12: conjugate of humanized anti-TfR Fab 3A4 VH3/Vk4 with DMPK-targeting oligonucleotide ASO300 (Fab, V domains shown)
VH: B1 VH with T55N
VL: B1 VL
modifications: ASO300 oligonucleotide attached through a cleavable Val-Cit linker (Formula (C)); residue and chain not stated
notes: also called 3A4 (VH3/Vk4) conjugate; DMPK oligo conjugate
B13: conjugate of humanized anti-TfR Fab 3M12 VH3/Vk2 with DMPK-targeting oligonucleotide ASO300 (Fab, V domains shown)
VH: B4 VH
VL: B4 VL
modifications: ASO300 oligonucleotide attached through a cleavable Val-Cit linker (Formula (C)); residue and chain not stated
notes: also called 3M12 (VH3/Vk2) conjugate; DMPK oligo conjugate
B14: conjugate of humanized anti-TfR Fab 3M12 VH4/Vk3 with DMPK-targeting oligonucleotide ASO300 (Fab, V domains shown)
VH: B4 VH with S23T, M49I
VL: B4 VL with F87Y
modifications: ASO300 oligonucleotide attached through a cleavable Val-Cit linker (Formula (C)); residue and chain not stated
notes: also called 3M12 (VH4/Vk3) conjugate; DMPK oligo conjugate
B15: conjugate of humanized anti-TfR Fab 5H12 VH5 (C33Y)/Vk4 with DMPK-targeting oligonucleotide ASO300 (Fab, V domains shown)
VH: B7 VH
VL: B7 VL
modifications: ASO300 oligonucleotide attached through a cleavable Val-Cit linker (Formula (C)); residue and chain not stated
notes: also called 5H12 (VH5-C33Y/Vk4) conjugate; DMPK oligo conjugate
B16: conjugate of humanized anti-TfR Fab 5H12 VH5 (C33D)/Vk4 with DMPK-targeting oligonucleotide ASO300 (Fab, V domains shown)
VH: B7 VH with Y33D
VL: B7 VL
modifications: ASO300 oligonucleotide attached through a cleavable Val-Cit linker (Formula (C)); residue and chain not stated
notes: also called 5H12 (VH5-C33D/Vk4) conjugate; DMPK oligo conjugate
B17: anti-TfR Fab 3M12 VH4/Vk3 (Fab, V domains shown)
VH: B4 VH with S23T, M49I
VL: B4 VL with F87Y
B18: conjugate of humanized anti-TfR Fab 5H12 VH5 (C33Y)/Vk3 with DMPK-targeting oligonucleotide ASO300 (Fab, V domains shown)
VH: B7 VH
VL: B7 VL with M4L, G72R
modifications: ASO300 oligonucleotide attached through a cleavable Val-Cit linker (Formula (C)); residue and chain not stated
notes: also called 5H12 (VH5-C33Y/Vk3) conjugate

Changes are numbered by the printed parent chain. Numbers in names are those of the source.

The target in the first test is T1, cynomolgus monkey (Macaca fascicularis) …. Put plainly: ELISA, d0. The protocol:
(§1) To measure binding of humanized anti-TfR antibodies to TfR1, ELISAs were conducted. High binding, black, flat bottom, 96 well plates (Corning# 3925) were first coated with 100 µL/well of recombinant huTfR1 at 1 µg/mL in PBS and incubated at 4° C. overnight. Wells were emptied and residual liquid was removed. Blocking was conducted by adding 200 µL of 1%BSA (w/w) in PBS to each well. Blocking was allowed to proceed for 2 hours at room temperature on a shaker at 300 rpm. After blocking, liquid was removed and wells were washed three times with 300 µL of TBST. Anti-TfR1 antibodies were then added in 0.5% BSA/TBST in triplicate in an 8 point serial dilution (dilution range 5 µg/mL- 5 ng/mL). A positive control and isotype controls were also included on the ELISA plate. The plate was incubated at room temperature on an orbital shaker for 60 minutes at 300 rpm, and the plate was washed three times with 300 µL of TBST. Anti-(H+L)IgG-A488 (1:500) (Invitrogen #A11013) was diluted in 0.5% BSA in TBST, and 100 µL was added to each well. The plate was then allowed to incubate at room temperature for 60 minutes at 300 rpm on orbital shaker. The liquid was removed and the plate was washed four times with 300 µL of TBST. Absorbance was then measured at 495 nm excitation and […] (with a 15 nm bandwidth) on a plate reader. Data was recorded and analyzed for EC₅₀. […] ELISA measurements were conducted using cynomolgus monkey (Macaca fascicularis) TfR1 (cTfR1) according to the same protocol described above for hTfR1, and results are shown in FIGS. 9B, 9D, and 9F.
(ELISA stands for enzyme-linked immunosorbent assay.)
A word on the EC50: it is the midpoint of the concentration-response curve. For B1, it took 156 nM to reach a half-maximal effect (EC50).

The molecule B2 registered an EC50 of 122 nM.

B3 displayed an EC50 of 398 nM.

B4 yielded an EC50 of 9.9 nM.

On to B5, for which the 50% effective concentration (EC50) is 4.7 nM.

As to B6, the midpoint of the response, the EC50, lay at 1.4 nM.

In the case of B7, the response was half-maximal at 3.3 nM (EC50).

B8 came in with an EC50 of 2.1 nM.

In turn, B9 registered an EC50 of 3.5 nM.

For the next test the target is unchanged. Put plainly: ELISA, Fab-ASO300 conjugate.
B10: the EC50 was determined as 5.12 nM.

With B11, the EC50 was determined as 4.1 nM.

On to B12, for which a half-maximal effect (EC50) was put at 7.59 nM.

Molecule B13 gave an EC50 of 2.26 nM.

Molecule B14 returned an EC50 of 1.85 nM.

For the molecule B15, the EC50 was determined as 13.9 nM.

Molecule B16 yielded an EC50 of 10.2 nM.

For the next test the target is unchanged. Put plainly: ELISA, d9 (after 9 days at 40 C).
As to B1, the EC50 came to 128 nM.

B2: it took 878 nM to reach a half-maximal effect (EC50).

In the case of B3, the EC50 came to 248 nM.

In turn, B4 gave a 50% effective concentration (EC50) of 19.5 nM.

In turn, B5 had an EC50 of 15.6 nM.

Take B6: the EC50 was 5.01 nM.

On to B17, for which a half-maximal effect (EC50) was put at 16.4 nM.

In turn, B7 had an EC50 of 0.26 nM.

Molecule B8 gave an EC50 of 0.69 nM.

Molecule B9 registered an EC50 of 0.63 nM.

The next test shares this target. Put plainly: ELISA, coated recombinant TfR1, unconjugated Fab. Here is the method: as §1
Take B1: the EC50 turned out to be 156 nM.

For the molecule B2, the EC50 was 122 nM.

Consider B3, for which the EC50 is 398 nM.

B4: the EC50 turned out to be 9.9 nM.

As to B5, the EC50 worked out at 4.7 nM.

Regarding B6, the EC50 stood at 1.4 nM.

Turning to B7, the EC50 came out at 3.3 nM.

For B8, the EC50 turned out to be 2.1 nM.

As to B9, the EC50 came to 3.5 nM.

For the next test the target is unchanged. Put plainly: ELISA, coated recombinant TfR1, Fab-ASO300 conjugate.
B10: the EC50 turned out to be 4.7 nM.

As for B11, the EC50 was 7.8 nM.

On to B12, for which the EC50 was determined as 7.6 nM.

Consider B13, for which the EC50 is 2.9 nM.

B14: the EC50 stood at 2.1 nM.

B15: the EC50 turned out to be 3.3 nM.

On to B16, for which the EC50 worked out at 10.2 nM.

Turning to B18, the EC50 stood at 2.3 nM.
